# Data reported in patent publication US20260063625A1, “COMPOSITIONS FOR AND METHODS OF DETECTING FOOD TOXINS” (priority 2022, published 2026).
# Assay: Fluorescence polarization (FP) binding to fluorescein labeled STX
# Conditions: […]G = RT ln (KdSxph mutant/KdSxph); T = 298K
# Experimental: […]; Measurements were performed at 25° C. on a Synergy H1 microplate reader (BioTek) using the polarization filter setting (excitation 485 nm, emission 528 nm). […]. The dissociation constants were calculated using GraphPad Prism by fitting fluorescence millipolarization (mP=P·10^−3, where P is polarization) as a function of Sxph concentration using the equation: P={(Pbound−Pfree) [Sxph]/(Kd+[Sxph])}+Pfree, where P is the polarization measured at a given Sxph concentration, Pfree is the […], and Pbound is the maximum polarization of Sxph bound by F-STX (Rossi and Taylor, Hansen et al.).
row,Molecule,[…]G (kcal mol^−1) relative to wild-type RcSxph
1,E540Q: RcSxph mutant E540Q (protein) MAPTFQTALFFTIISLSFAAPNAKQVRWCAISDLEQKKCNDLVGSCNVPDITLVCVLRSSTEDCMTAIKDGQADAMFLDSGEVYEASKDPYNLKPIIAEPYSSNRDLQKCLKERQQALAKKMIGHYIPQCDEKGNYQPQQCHGSTGHCWCVNAMGEKISGTNTPPGQTRATCERHELPKCLKERQVALGGDEKVLGRFVPQCDEKGNYEPQQFHGSTGYSWCVNAIGEEIAGTKTPPGKIPATCQKHDLVTTCHYAVAMVKKSSAFQFNQLKGKRSCHSGVSKTDGWKALVTVLVEKKLLSWDGPAKESIQRAMSKFFSVSCIPGATQTNLCKQCKGEEGKNCKNSHDEPYYGNYGAFRCLKEDMGDVAFLRSTALSDEHSEVYELLCPDNTRKPLNKYKECNLGTVPAGTVVTRKISDKTEDINNFLMEAQKRQCKLFSSAHGKDLMFDDSTLQLALLSSEVDAFLYLGVKLFHAMKALTGDAHLPSKNKVRWCTINKLEKMKCDDWSAVSGGAIACTEASCPKGCVKQILKGEADAVKLEVQYMYEALMCGLLPAVQEYHNKDDFGPCKTPGSPYTDFGTLRAVALVKKSNKDINWNNIKGKKSCHTGVGDIAGWVIPVSLIRRQNDNSDIDSFFGESCAPGSDTKSNLCKLCIGDPKNSAANTKCSLSDKEAYYGNQGAFRCLVEKGDVAFVPHTVVFENTDGKNPAVWAKNLKSEDFELLCLDGSRAPVSNYKSCKLSGIPPPAIVTREESISDVVRIVANQQSLYGRKGFEKDMFQLFSSNKGNNLLFNDNTQCLITFDRQPKDIMEDYFGKPYYTTVYGASRSAMSSELISACTIKHC,4.30 kcal/mol
2,F784C: RcSxph mutant F784C (protein) MAPTFQTALFFTIISLSFAAPNAKQVRWCAISDLEQKKCNDLVGSCNVPDITLVCVLRSSTEDCMTAIKDGQADAMFLDSGEVYEASKDPYNLKPIIAEPYSSNRDLQKCLKERQQALAKKMIGHYIPQCDEKGNYQPQQCHGSTGHCWCVNAMGEKISGTNTPPGQTRATCERHELPKCLKERQVALGGDEKVLGRFVPQCDEKGNYEPQQFHGSTGYSWCVNAIGEEIAGTKTPPGKIPATCQKHDLVTTCHYAVAMVKKSSAFQFNQLKGKRSCHSGVSKTDGWKALVTVLVEKKLLSWDGPAKESIQRAMSKFFSVSCIPGATQTNLCKQCKGEEGKNCKNSHDEPYYGNYGAFRCLKEDMGDVAFLRSTALSDEHSEVYELLCPDNTRKPLNKYKECNLGTVPAGTVVTRKISDKTEDINNFLMEAQKRQCKLFSSAHGKDLMFDDSTLQLALLSSEVDAFLYLGVKLFHAMKALTGDAHLPSKNKVRWCTINKLEKMKCDDWSAVSGGAIACTEASCPKGCVKQILKGEADAVKLEVQYMYEALMCGLLPAVEEYHNKDDFGPCKTPGSPYTDFGTLRAVALVKKSNKDINWNNIKGKKSCHTGVGDIAGWVIPVSLIRRQNDNSDIDSFFGESCAPGSDTKSNLCKLCIGDPKNSAANTKCSLSDKEAYYGNQGAFRCLVEKGDVAFVPHTVVFENTDGKNPAVWAKNLKSEDFELLCLDGSRAPVSNYKSCKLSGIPPPAIVTREESISDVVRIVANQQSLYGRKGFEKDMFQLFSSNKGNNLLFNDNTQCLITCDRQPKDIMEDYFGKPYYTTVYGASRSAMSSELISACTIKHC,3.15 kcal/mol
3,F784Y: RcSxph mutant F784Y (protein) MAPTFQTALFFTIISLSFAAPNAKQVRWCAISDLEQKKCNDLVGSCNVPDITLVCVLRSSTEDCMTAIKDGQADAMFLDSGEVYEASKDPYNLKPIIAEPYSSNRDLQKCLKERQQALAKKMIGHYIPQCDEKGNYQPQQCHGSTGHCWCVNAMGEKISGTNTPPGQTRATCERHELPKCLKERQVALGGDEKVLGRFVPQCDEKGNYEPQQFHGSTGYSWCVNAIGEEIAGTKTPPGKIPATCQKHDLVTTCHYAVAMVKKSSAFQFNQLKGKRSCHSGVSKTDGWKALVTVLVEKKLLSWDGPAKESIQRAMSKFFSVSCIPGATQTNLCKQCKGEEGKNCKNSHDEPYYGNYGAFRCLKEDMGDVAFLRSTALSDEHSEVYELLCPDNTRKPLNKYKECNLGTVPAGTVVTRKISDKTEDINNFLMEAQKRQCKLFSSAHGKDLMFDDSTLQLALLSSEVDAFLYLGVKLFHAMKALTGDAHLPSKNKVRWCTINKLEKMKCDDWSAVSGGAIACTEASCPKGCVKQILKGEADAVKLEVQYMYEALMCGLLPAVEEYHNKDDFGPCKTPGSPYTDFGTLRAVALVKKSNKDINWNNIKGKKSCHTGVGDIAGWVIPVSLIRRQNDNSDIDSFFGESCAPGSDTKSNLCKLCIGDPKNSAANTKCSLSDKEAYYGNQGAFRCLVEKGDVAFVPHTVVFENTDGKNPAVWAKNLKSEDFELLCLDGSRAPVSNYKSCKLSGIPPPAIVTREESISDVVRIVANQQSLYGRKGFEKDMFQLFSSNKGNNLLFNDNTQCLITYDRQPKDIMEDYFGKPYYTTVYGASRSAMSSELISACTIKHC,0.37 kcal/mol
4,D794N: RcSxph mutant D794N (protein) MAPTFQTALFFTIISLSFAAPNAKQVRWCAISDLEQKKCNDLVGSCNVPDITLVCVLRSSTEDCMTAIKDGQADAMFLDSGEVYEASKDPYNLKPIIAEPYSSNRDLQKCLKERQQALAKKMIGHYIPQCDEKGNYQPQQCHGSTGHCWCVNAMGEKISGTNTPPGQTRATCERHELPKCLKERQVALGGDEKVLGRFVPQCDEKGNYEPQQFHGSTGYSWCVNAIGEEIAGTKTPPGKIPATCQKHDLVTTCHYAVAMVKKSSAFQFNQLKGKRSCHSGVSKTDGWKALVTVLVEKKLLSWDGPAKESIQRAMSKFFSVSCIPGATQTNLCKQCKGEEGKNCKNSHDEPYYGNYGAFRCLKEDMGDVAFLRSTALSDEHSEVYELLCPDNTRKPLNKYKECNLGTVPAGTVVTRKISDKTEDINNFLMEAQKRQCKLFSSAHGKDLMFDDSTLQLALLSSEVDAFLYLGVKLFHAMKALTGDAHLPSKNKVRWCTINKLEKMKCDDWSAVSGGAIACTEASCPKGCVKQILKGEADAVKLEVQYMYEALMCGLLPAVEEYHNKDDFGPCKTPGSPYTDFGTLRAVALVKKSNKDINWNNIKGKKSCHTGVGDIAGWVIPVSLIRRQNDNSDIDSFFGESCAPGSDTKSNLCKLCIGDPKNSAANTKCSLSDKEAYYGNQGAFRCLVEKGDVAFVPHTVVFENTDGKNPAVWAKNLKSEDFELLCLDGSRAPVSNYKSCKLSGIPPPAIVTREESISDVVRIVANQQSLYGRKGFEKDMFQLFSSNKGNNLLFNDNTQCLITFDRQPKDIMENYFGKPYYTTVYGASRSAMSSELISACTIKHC,3.60 kcal/mol
5,F784L: RcSxph mutant F784L (protein) MAPTFQTALFFTIISLSFAAPNAKQVRWCAISDLEQKKCNDLVGSCNVPDITLVCVLRSSTEDCMTAIKDGQADAMFLDSGEVYEASKDPYNLKPIIAEPYSSNRDLQKCLKERQQALAKKMIGHYIPQCDEKGNYQPQQCHGSTGHCWCVNAMGEKISGTNTPPGQTRATCERHELPKCLKERQVALGGDEKVLGRFVPQCDEKGNYEPQQFHGSTGYSWCVNAIGEEIAGTKTPPGKIPATCQKHDLVTTCHYAVAMVKKSSAFQFNQLKGKRSCHSGVSKTDGWKALVTVLVEKKLLSWDGPAKESIQRAMSKFFSVSCIPGATQTNLCKQCKGEEGKNCKNSHDEPYYGNYGAFRCLKEDMGDVAFLRSTALSDEHSEVYELLCPDNTRKPLNKYKECNLGTVPAGTVVTRKISDKTEDINNFLMEAQKRQCKLFSSAHGKDLMFDDSTLQLALLSSEVDAFLYLGVKLFHAMKALTGDAHLPSKNKVRWCTINKLEKMKCDDWSAVSGGAIACTEASCPKGCVKQILKGEADAVKLEVQYMYEALMCGLLPAVEEYHNKDDFGPCKTPGSPYTDFGTLRAVALVKKSNKDINWNNIKGKKSCHTGVGDIAGWVIPVSLIRRQNDNSDIDSFFGESCAPGSDTKSNLCKLCIGDPKNSAANTKCSLSDKEAYYGNQGAFRCLVEKGDVAFVPHTVVFENTDGKNPAVWAKNLKSEDFELLCLDGSRAPVSNYKSCKLSGIPPPAIVTREESISDVVRIVANQQSLYGRKGFEKDMFQLFSSNKGNNLLFNDNTQCLITLDRQPKDIMEDYFGKPYYTTVYGASRSAMSSELISACTIKHC,1.11 kcal/mol
